Laboratory results reported in EP2674440A2.

Tests used:
[1] = target: CEA (UniProt P06731); test: SE-HPLC of 125I-TF2 mixed with a 20-fold molar excess of CEA
[2] = target: fusion protein containing the A3B3 domain of CEA (UniProt P06731); test: competitive ELISA against HRP-conjugated hMN-14 IgG (1 nM)

A % of labeled TF2 shifted to a high molecular weight species [1] of 95% and a fold avidity relative to TF1 [2] of 2 fold were found for TF2 (bispecific antibody) in this work.
